Test results: patent US8008256B2, “Combination therapy for treatment of cancer” (priority 2006, dated 2011)

B1: native CN (protein)
chain: DAPANPCCDAATCKLTTGSQCADGLCCDQCKFMKEGTVCRRARGDDLDDYCNGISAGCPRNPFH

Tests used:
PC-3 tumors = test: PC-3 xenograft tumor growth; format: in vivo, athymic male nude mice (Balb/c/nu/nu mice); details: for mean tumor volume after four weeks: docetaxel i.p. 6 then 4 mg/kg twice a week, CN 60 μg/day osmotic mini-pump, control 378±49; for suppression of growth of PC-3 tumors: four weeks treatment
Method: 100 μl of PC-3 cell suspension (1×10^6 cells) (ATCC.org, Manassas, Va.) was mixed with an equal volume, 100 μl of Matrigel basement membrane matrix (BD Biosciences, Bedford, Mass.) and injected subcutaneously into the flank region of athymic male nude mice (Balb/c/nu/nu mice) (Charles River Laboratory, Wilmington, Mass.). Four weeks after inoculation, 32 mice with PC-3 tumors were randomized into four groups with 8 mice in each group. The control group was treated with PBS and released from Alzet osmotic mini-pumps for four weeks. The second group was treated with docetaxel injections intraperitoneally at a dose of 6 mg/kg twice a week for two weeks and then switched to 4 mg/kg twice a week for two weeks. The third group was treated with contortrostatin (CN) at a dose of 60 μg/day which was continually released from subcutaneously implanted Alzet osmotic mini-pumps for four weeks. The fourth group was treated with a combination of docetaxel and CN at doses indicated in groups 2 and 3 for four weeks. Tumor volume was measured one a week and are calculated according to the formula: length×width^2×0.52.

MDA-MB-435 cells = test: MDA-MB-435 cell invasion through Matrigel/ECMatrix in modified Boyden chamber; format: cell-based, human; details: 10, 100, 1000 nM; 8 hrs in Boyden chamber
Method: (§1) Pretreated cells were allowed to adhere for 1 hr at 25° C., and after non-adherent cells were washed away, the number of adherent cells for each condition was estimated using the MTS cell viability assay. In the cell invasion assay, an invasion chamber consisting of cell culture inserts that fit into 24-well tissue culture plate has been utilized. The inserts contain an 8 μm-pore size polycarbonate membrane, over which a thin layer of ECMatrix™ was applied. The ECMatrix™ serves as an in vitro reconstituted basement membrane and is a solid gel of ECM proteins prepared from the Engelbreth Holm-Swarm (EHS) mouse tumor. The ECM layer occludes the membranes pores, blocking non-invasive cells to migrate through. The cells were incubated in the presence of various concentrations (10, 100, 1000 nM) of either native CN or Vicrostatin for 30 min at 25° C. and then allowed to migrate in the Boyden chamber for 8 hrs. At the 8 hr time point the cells that invaded through the pores into the lower chamber were measured. The numbers of invaded cells for each condition were approximated by quantitating the retrieved labeled DNA using a fluorescent plate reader. The results were calculated in % invasion, where the untreated control was considered as 100% invasion.

[1] = molecular target: T1, GPIIb/IIIa (integrin αIIbβ3) (Homo sapiens, UniProt P05106+P08514); test: platelet aggregation inhibition assay (ADP induced, platelet-rich plasma); format: cell-based
T1 construct: endogenous in cells
Method: The recombinant CN products were evaluated for biological activity by a platelet aggregation inhibition assay. According to this assay, CN binding to GPIIb/IIIa (integrin αIIbβ3) in an RGD dependent manner inhibits ADP induced platelet aggregation (Trikha, Rote, et al. 1994). In this assay, potential inhibitors are added to fresh platelet-rich plasma, and after minute, ADP is added to a final concentration of 1 μM to induce aggregation. If inhibitor is present, functional aggregation will not occur. The IC50 is defined as the concentration at which 50% of the activity is inhibited, and is used as a measure of the potency of an inhibitor.

[2] = test system: MDA-MB-435 breast carcinoma cells; test: inhibition of MDA-MB-435 cell adhesion to immobilized fibronectin (Fn); format: cell-based, human; details: pretreatment 30 min, 0-1000 nM; adhesion 1 hr at 25° C.; MTS
Method: as §1

[3] = test system: MDA-MB-435 breast carcinoma cells; test: inhibition of MDA-MB-435 cell adhesion to immobilized vitronectin (Vn); format: cell-based, human; details: pretreatment 30 min, 0-1000 nM; adhesion 1 hr at 25° C.; MTS
Method: as §1

[4] = liposome encapsulation efficiency (BCA protein assay); format: physicochemical
Method: Endotoxin-free VN containing liposomes (referred to as LVN) and endotoxin-free native CN containing liposomes (referred to as LCN) were prepared utilizing a probe sonication previously described (Fujii, Chang et al. 1997). Briefly, the lipids (disteroylphosphatidylcholine, cholesterol and polyethylene glycol derivatized lipid) were dissolved in a chloroform/methanol solution. Thin lipid films were created by pipetting aliquots of the lipid solution into round bottom glass tubes followed by solvent evaporation at 65° C. under a stream of nitrogen gas. The films were placed under vacuum for at least 24 hours to remove residual organic solvent. Liposomes formed following hydration of the lipid films with native CN or VN dissolved in 10 mM sodium phosphate, 9% sucrose, pH 7.2. The mixture was incubated at 65° C. for 5-10 minutes. Hydration was followed by probe sonication until the suspension was translucent. […]
The concentration of liposome entrapped CN/VN was determined by disruption of the liposomes with chloroform/methanol/water (10:40:50) followed by centrifugation at 14,000×g. The supernatant was analyzed for CN/VN concentration using BCA protein assay (Smith et al., Anal. Biochem. 150(1): 76-85 (1985)). The encapsulation efficiency was assessed by BCA protein determination following disruption of the LrCN with a solution of H2O methanol: chloroform.

Molecule	mean tumor volume after four weeks (PC-3 tumors) [mm^3]	suppression of growth of PC-3 tumors (PC-3 tumors)	inhibition of MDA-MB-435 cell invasion (MDA-MB-435 cells)	inhibition of platelet aggregation ([1]; even at low μM concentrations)	inhibition of adhesion of MDA-MB-435 cells to immobilized fibronectin (Fn) [2]	inhibition of adhesion of MDA-MB-435 cells to immobilized vitronectin (Vn) [3]	protein in the encapsulation solution entrapped within the liposomes [4] [%]	IC50 in the platelet inhibition assay ([1]; ADP 1 μM induced aggregation)
CC(=O)O[C@@]12CO[C@@H]1C[C@H](O)[C@@]1(C)C(=O)[C@H](O)C3=C(C)[C@@H](OC(=O)[C@H](O)[C@@H](NC(=O)OC(C)(C)C)c4ccccc4)C[C@@](O)([C@@H](OC(=O)c4ccccc4)[C@H]21)C3(C)C [docetaxel, reference compound]	259±38	significantly suppressed						
rCN: recombinant CN disintegrin domain without the HKGPAT sequence			inactive in the nanomolar range	did not inhibit platelet aggregation	inactive in the nanomolar range	inactive in the nanomolar range		
B1	195±40	significantly suppressed			inhibited adhesion	inhibited adhesion	80	almost identical
